Laboratory results from patent US20190263934A1 (published 2019).

Target: T1, Ab3 WT recombinant Fc fragment (UniProt P01857-1 104-330 = IgG part, limits assumed)
T1 construct: domain: Fc fragment; Ab3 is an Fc fragment
Assay: Biacore SPR, pH 6.0
Protocol: With the biotin CAPture kit, the CAPture reagent was captured on the CAP chip surface to a binding RU of >2,000 RU, followed by 0.1 μg mL⁻¹ FcRn in the appropriate channels for 24 s at 30 uL min⁻¹ to a final binding RU of ˜2 RU. The running buffer for the FcRn binding kinetics experiments was PBS with 0.05% Surfactant P-20 (PBS-P+, GE Healthcare) at pH 6.0 or 7.4. A concentration series of a 4-fold serial dilution from 1000 nM antibody was performed in quadruplicate for each variant, including a 0 nM control. Kinetic measurements were obtained for association and dissociation times of 180 and 300 sec, respectively at a flow rate of 10 μL min⁻¹. The C1 and CAP sensor chips were regenerated with 10 mM sodium tetraborate, 1 M NaCl pH 8.5 (GE Healthcare) for 30 sec at 50 μL min⁻¹ or 6 M guanidine hydrochloride, 250 mM sodium hydroxide (GE Healthcare) for 120 s at 50 uL min¹, respectively, followed by an additional 60-90 sec stabilization step in PBS-P+pH 6.0. […]
Kinetic parameters for the concentration series at pH 6.0 were fit to a bivalent model using the Biacore T200 Evaluation Software due to avidity effects. […] The apparent binding affinity was calculated from the first on and off-rates from the bivalent model. The residual binding at pH 7.4 was measured using 1000 nM of each antibody in triplicate at the same time for response comparison.

B1: mouse FcRn (receptor)
chain: SETRPPLMYHLTAVSNPSTGLPSFWATGWLGPQQYLTYNSLRQEADPCGAWMWENQVSWYWEKETTDLKSKEQLFLEALKTLEKILNGTYTLQGLLGCELASDNSSVPTAVFALNGEEFMKFNPRIGNWTGEWPETEIVANLWMKQPDAARKESEFLLNSCPERLLGHLERGRRNLEWKEPPSMRLKARPGNSGSSVLTCAAFSFYPPELKFRFLRNGLASGSGNCSTGPNGDGSFHAWSLLEVKRGDEHHYQCQVEHEGLAQPLTVDLDSSARSS
b2m: IQKTPQIQVYSRHPPENGKPNILNCYVTQFHPPHIEIQMLKNGKKIPKVEMSDMSFSKDWSFYILAHTEFTPTETDTYACRVKHASMAEPKTVYWDRDM
modifications: biotinylated
notes: only 'biotinylated ... mouse FcRn' is told; also called mFcRn
Kd: 61 nM
